In patent US20260201038A1 (CELLABMED, published 2026):

Columns and labels:
[1] = biological target: B7-H3 on human cancer cells (human) (UniProt Q5ZPR3); test: flow cytometry on Panc-1 pancreatic cancer cells; control (secondary antibody only) < 15%
[2] = biological target: B7-H3 on human cancer cells (human) (UniProt Q5ZPR3); test: flow cytometry on MDA-MB-231 breast cancer cells; control (secondary antibody only) < 5%
[3] = biological target: B7-H3 on human cancer cells (human) (UniProt Q5ZPR3); test: flow cytometry on HepG2K liver cancer cells; control (secondary antibody only) < 20%
[4] = biological target: B7-H3 on human cancer cells (human) (UniProt Q5ZPR3); test: flow cytometry on NCI-H1975 lung cancer cells; control (secondary antibody only) < 5%
B7-H2 = biological target: T1, B7-H2 (UniProt O75144 19-256, limits assumed); test: indirect ELISA, B7-H2 coated at 1 ug/mL, absorbance at 450 nm
T1 sequence (looked up): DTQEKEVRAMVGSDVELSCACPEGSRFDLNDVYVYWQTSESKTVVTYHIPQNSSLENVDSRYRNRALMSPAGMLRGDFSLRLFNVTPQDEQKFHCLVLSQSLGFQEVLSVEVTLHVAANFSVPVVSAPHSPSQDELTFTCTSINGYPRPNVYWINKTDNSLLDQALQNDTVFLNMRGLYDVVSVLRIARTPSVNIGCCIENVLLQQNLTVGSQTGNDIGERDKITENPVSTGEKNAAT
Description: [The procedure below names another target; the source lists this target under the same test.] The binding ability of 2D IgG prepared in Example 2 for recombinant B7-H3 protein was investigated by indirect ELISA. For indirect ELISA, recombinant human 4lg B7-H3, recombinant human 2lg B7-H3 and recombinant mouse B7-H3 were diluted respectively to 1 μg/mL in 50 μL of PBS and adsorbed overnight onto a 96-well immunoplate (Corning, USA) by storing at 4° C. After reaction with a buffer solution containing 3% bovine serum albumin at room temperature for 1 hour, followed by washing 3 times with a buffer solution containing 0.5% Tween 20, each well was treated with 50 μL of the antibodies diluted serially (0.0001, 0.0003, 0.001, 0.003, 0.01, 0.03, 0.1, 0.3, 1, 3 and 10 nM). For antigen-antibody binding, the mixture was reacted at room temperature for 2 hours, and then washed 3 times with a buffer solution containing 0.5% Tween 20. After treating each well with 50 μL of anti-human immunoglobulin Fc-HRP antibodies (Jackson Immunoresearch, USA) diluted to 1:3,000, reaction was conducted at room temperature for 1 hour. […] As a result of measuring absorbance at 450 nm using a spectrophotometer (Biotek, USA), it was confirmed that 2D IgG binds to B7-H3, and the binding ability was in the order of 4lg B7-H3, 2lg B7-H3 and mouse B7-H3 (FIG. 2a). […]

[5] = biological target: B7-H3 on human cancer cells (human) (UniProt Q5ZPR3); test: flow cytometry on A549 lung cancer cells; control (secondary antibody only) < 5%
[6] = biological target: T2, …; test: peptide microarray, 15-mers of human 4Ig B7-H3; panel Ig-like-V type 1
T2 sequence (peptide): EVQVPEDPVVALVGT

LEVQVPEDPVVALVG = biological target: T3, LEVQVPEDPVVALVG; test: as above
T3 construct: 15-mer of human 4Ig B7-H3 on the peptide microarray, panel Ig-like-V type 1
T3 peptide: LEVQVPEDPVVALVG
Description: (§1) It was confirmed that G2D IgG has linear epitopes since G2D was verified to recognize 4lg B7-H3 through western blot (FIG. 10a). Therefore, linear epitope mapping was conducted by Pepperprint GmbH (Germany). After preparing a peptide microarray from the 15 4lg B7-H3 amino acids with 14-amino acid overlaps, the antibodies binding to peptides were identified using secondary antibodies (FIG. 10b). As a result, it was confirmed that G2D IgG binds to a peptide having a sequence of EVQVP (FIG. 10c). EVQVP is located in the Ig-like V-type1 and Ig-like V-type2 domains of 4lg B7-H3 (FIGS. 10d and 10e). When the epitopes of the control antibody enoblituzumab were identified by the same method, it was confirmed that the epitopes include the sequence of GYPEAE (FIG. 10b), and GYPEAE is located in the Ig-like C2-type1 and Ig-like C2-type2 domains of 4lg B7-H3 (FIGS. 10d and 10e). As a result, it was confirmed that G2D IgG and the control antibody enoblituzumab have different epitopes.

ALWFCLTGALEVQVP = biological target: T4, ALWFCLTGALEVQVP; test: as above
T4 construct: 15-mer of human 4Ig B7-H3 on the peptide microarray, panel Ig-like-V type 1
T4 peptide: ALWFCLTGALEVQVP
Description: as §1

LTGALEVQVPEDPVV = biological target: T5, LTGALEVQVPEDPVV; test: as above
T5 construct: 15-mer of human 4Ig B7-H3 on the peptide microarray, panel Ig-like-V type 1
T5 peptide: LTGALEVQVPEDPVV
Description: as §1

LWFCLTGALEVQVPE = biological target: T6, LWFCLTGALEVQVPE; test: as above
T6 construct: 15-mer of human 4Ig B7-H3 on the peptide microarray, panel Ig-like-V type 1
T6 peptide: LWFCLTGALEVQVPE
Description: as §1

WFCLTGALEVQVPED = biological target: T7, WFCLTGALEVQVPED; test: as above
T7 construct: 15-mer of human 4Ig B7-H3 on the peptide microarray, panel Ig-like-V type 1
T7 peptide: WFCLTGALEVQVPED
Description: as §1

[7] = biological target: B7-H3 on human cancer cells (human) (UniProt Q5ZPR3); test: flow cytometry on U87 brain tumor cells; control (secondary antibody only) < 10%
[8] = biological target: B7-H3 on human cancer cells (human) (UniProt Q5ZPR3); test: flow cytometry on PC-3 prostate cancer cells; control (secondary antibody only) < 20%
[9] = biological target: B7-H3 on human cancer cells (human) (UniProt Q5ZPR3); test: flow cytometry on SK-BR-3 breast cancer cells; control (secondary antibody only) < 5%
[10] = biological target: B7-H3 on human cancer cells (human) (UniProt Q5ZPR3); test: flow cytometry on MIA-PaCa2 pancreatic cancer cells; control (secondary antibody only) < 25%

B1: G2D IgG (antibody, V domains shown)
VH: QVQLVESGGGLVQPGGSLRLSCSASGFDFSSYPMVWVRQAPGKGLEYVSSINSGGSWTGYGAAVKGRATISRDNSKNTLYLQMNSLRAEDTATYYCARAYGAATIDAWGQGTTVTVSS
VL: SYELTQPPSVSVSPGQTARITCSGGSIGYGWYQQKAPGQAPVTVIYYNDRRPSGIPERFSGSKSGTTNTLTISGVQAEDEADYYCGSADSSSTYTGIFGGGTKLTVL
notes: The back-substitutions (L46T, S66K, V71N in VL); also called humanized 2D; G2D antibody
With B1 the % of cells in the positive gate [1] was > 95%, the % of cells in the positive gate [2] was > 95% and the % of cells in the positive gate [3] was > 95%. For the same binder, the % of cells in the positive gate [4] was > 80%, the binding result (B7-H2) was “no binding (tested: 10 nM)” and the % of cells in the positive gate [5] was > 95%. The fluorescence intensity of the peptide spot [6] was 16, the “fluorescence intensity of the peptide spot” value (from here on “fluorescence intensity”) (LEVQVPEDPVVALVG) was 30.5 and the “fluorescence intensity” value (ALWFCLTGALEVQVP) was 122. The “fluorescence intensity” value (LTGALEVQVPEDPVV) was 154, the “fluorescence intensity” value (LWFCLTGALEVQVPE) was 17.3 and the “fluorescence intensity” value (WFCLTGALEVQVPED) was 24.8. For the same binder, the % of cells in the positive gate [7] was > 95%, the % of cells in the positive gate [8] was > 95% and the % of cells in the positive gate [9] was > 35%. For the same binder, the % of cells in the positive gate [10] was > 95%.
